Target: HAdV7灭活病毒 (human/CHN/GZ6965/2001)

B1: 10G12抗体 (antibody, V domains shown)
VH: QVQLKQPGAELVRPGASVKLSCKASGYSFTNYWMHWMKQRPGQGLEWIGMIDPSDSETRLNQKFKDKATLTVDKSSSIAYMQLSSPTSEDSAVYYCARDRYDGGAWFDYWSQGTLVT
VL: DIVMTQTPLSLPVSLGDQASISCRSSQSLVHSNGNTYLHWYLQKPGQSPKLLIYKVSNRFSGVPDRFSVSGSGTDFTLKISRVEAEDLGVYFCSQSTHVPPTFGGGTKLEIK
B1 was tested, and the EC50 was 0.14 nM.

Source: patent CN110294802A
